# Reference: the Immune Epitope Database (IEDB)
# Target: HLA-A*02:01
# Assay: IEDB peptide-MHC binding, purified MHC/competitive/radioactivity; ≥ and ≤ were set here for values at or beyond the usual limits of such assays
# Conditions: source organism: Vaccinia virus WR
row,Sequence,IC50
1,MTLSCNGET,1940 nM
2,TIDFKLKYFL,3030 nM
3,YILCNMALL,0.38 nM
4,YILHSDYQL,13 nM
5,LLSLFSTLV,12 nM
6,LLNLLLWPL,0.073 nM
7,KLVSISNFI,6.3 nM
8,LLSLLVIWI,148 nM
9,LVLGIALLYI,6.7 nM
10,CLCSFHNDA,4140 nM
11,IVYCLNALV,102 nM
12,SVCNSLSQI,1510 nM
13,ILSPPINAPI,38 nM
14,YILRGLLEA,2.5 nM
15,RMILYLESV,1.8 nM
16,TMFKIVYSL,9.3 nM
17,HLIFSYAFL,105 nM
18,AAMYQYIFL,686 nM
19,KISLDISQL,2280 nM
20,FVFILTAIL,4.1 nM
21,KVFFGPIYYL,18 nM
22,SIYECITFL,77 nM
23,KIADDRIVV,6.6 nM
24,LTREMGFLV,2360 nM
25,SLLRKFLYCI,338 nM
26,GVLTIKAPNV,3880 nM

row,Sequence,IC50
1,TVMVKINPTL,114 nM
2,KIIKKMEDMV,2670 nM
3,SMISRHCCI,986 nM
4,ILQISQCQRI,2600 nM
5,ILMIFISSFL,22 nM
6,MIYGLIACL,8.5 nM
7,LAALFMYYA,52 nM
8,LQISQCQRI,1370 nM
9,TTTSEVVDML,2520 nM
10,FMASPENVIL,1070 nM
11,LITLTNVVNI,1060 nM
12,STEERHIFL,2250 nM
13,FMFIGSPMYL,0.093 nM
14,NIYLNFPWL,1210 nM
15,LMSNIKTMMI,1560 nM
16,ILSNYVKTLL,7.5 nM
17,IVISPMGKL,896 nM
18,WLIGFDFDV,0.06 nM
19,VLYNGVNYL,0.25 nM
20,LILSCIFAFI,18 nM
21,ILSDDMLNI,7.6 nM
22,HMYFTFFDV,9.1 nM
23,VVYSTCTVPT,2320 nM
24,CLKDIIDFL,671 nM
25,AIIPLSASV,14 nM
26,LVFIKPPLI,55 nM

row,Sequence,IC50
1,FMYIESIKV,1.3 nM
2,YIIDKDTNSV,30 nM
3,YQDSDVSQEV,12 nM
4,EAAITDAAV,2320 nM
5,AVVYSTCTV,104 nM
6,SLEATYHII,762 nM
7,PMLYQLLEA,1070 nM
8,ILYAAFLWL,112 nM
9,ALGGSVNIWA,1160 nM
10,VTLQKVLHV,622 nM
11,KIFYKHIHKI,539 nM
12,RVETSPRPT,1960 nM
13,SLHSLSVET,266 nM
14,FIDILLFVI,14 nM
15,VMTPSPFYT,2660 nM
16,ALQNVMISI,440 nM
17,LLLLLFHSYA,9.7 nM
18,MVISLLSMI,155 nM
19,AVTKTDGIPI,1460 nM
20,SMIGLCACV,2 nM
21,CIDGKWNPV,8.3 nM
22,LMIEYNLLT,1.5 nM
23,GLADAFILL,13 nM
24,YVKTLLISM,1890 nM
25,LTFNFTPKI,251 nM
26,KLSDVGHQYA,21 nM

row,Sequence,IC50
1,GVSKKNIWL,3160 nM
2,IVMDNDDNIL,883 nM
3,CLVVSTKGDV,674 nM
4,GLYYQGSCYI,5.1 nM
5,GMLFVNDLM,467 nM
6,ETIGNQLYL,3540 nM
7,ILFNLSKFLL,4 nM
8,DTWGSDGNPI,1150 nM
9,KIDKLRQIV,1560 nM
10,GLLDRLYDL,0.13 nM
11,IVSVSESNI,2350 nM
12,MITMSAFLI,422 nM
13,FLSYISDTV,0.54 nM
14,DMTKVDVEL,3990 nM
15,NISTILYFT,128 nM
16,ITLTNVVNI,927 nM
17,IMYTYFSNTI,99 nM
18,CVLPAVVYST,303 nM
19,TVSDYISEL,128 nM
20,VLEYIYGGKT,1440 nM
21,ILDDNLYKV,1.3 nM
22,SLSSQMTST,2000 nM
23,QMTSTFIML,420 nM
24,TMLSIILVI,1.4 nM
25,FILGIIITV,0.11 nM
26,TAIFTDASTV,4460 nM

row,Sequence,IC50
1,IVLFILKIFV,271 nM
2,ALMRRIAVV,1.8 nM
3,MMMMKWIISI,10 nM
4,YLIHDNIMYT,1.3 nM
5,QLVDAIDNIV,101 nM
6,FLIPKGFYA,0.82 nM
7,LIYSMEFTNL,345 nM
8,GIKSVVVPI,869 nM
9,KTISVVTLL,287 nM
10,GLISGSTFSI,22 nM
11,YLLSLFSTLV,0.32 nM
12,YLGMFNPYSL,0.16 nM
13,IIIPFIAYFV,1.2 nM
14,ILPCPQINTL,1380 nM
15,LLFDRDTFYI,0.4 nM
16,KLRPNSFWFV,2 nM
17,VLYPVIFIT,9.3 nM
18,MLPKQDIVGL,96 nM
19,STAVNEEWL,4690 nM
20,SVNIWAIIPL,1120 nM
21,PLLFILFYFA,42 nM
22,FILIFNIIV,3.2 nM
23,YTDSIQDLL,933 nM
24,FLVGVAIILV,7.6 nM
25,SQMTSTFIM,85 nM
26,MLYFAGGLSV,0.35 nM
